Measurements reported in the Human Domainome abundance scans (Beltran et al. 2025).

B1: Protein piccolo, residues 1058 to 1114; numbered along this chain, Q9Y6V0 (parent)
chain: TCPLCKTELNIGSKDPPNFNTCTECKNQVCNLCGFNPTPHLTEIQEWLCLNCQTQRA
B2: Chromodomain-helicase-DNA-binding protein 4, residues 444 to 496; numbered along this chain, Q14839 (parent)
chain: EDDHHMEFCRVCKDGGELLCCDTCPSSYHIHCLNPPLPEIPNGEWLCPRCTCP

Variants of: B1
Assay: abundance fitness (aPCA) (normalised: wild type 0, dead -1); higher = more abundant; growth selection in yeast, the domain comes from the species named
Conditions: Homo sapiens

Abundance fitness: each site, then its substitutions
G12: T 0.035, E 0.092, Y -0.137, R -0.05, I 0.154, A -0.361, V -0.405, N -0.611, Q -0.3, F -0.203, H -0.182, W -0.326, D 0.357, P 0.027, C 0.077, L -0.039, K -0.216
C2: S -0.687, A -1.3, N -0.156, W -0.904, R -0.991, K -0.831, E -0.557, M -0.983, D -0.536, G -0.877, T -0.705, V -1.11, P -1.1, H -0.834, F -1.11, I -1.23, Y -1.15
T1: P -0.239, E -0.142, V -0.202, G -0.205, S -0.129, K -0.424, W -0.516, M -0.031, I -0.024, R -0.21, L -0.078, A -0.534
K6: N 0.071, E -0.069, D -0.298, P 0.104, V -0.215, T -0.107, I -0.087, Q -0.02, G -0.507, A -0.097, W -0.795, H -0.142, C -0.329, S 0.059, Y -0.18, R -0.283
L4: D 0.17, M 0.075, W -0.576, K -0.569, Y -0.088, T -0.051, N 0.036, E -0.288, H 0.054, C -0.043, R -0.054, Q 0.028, I -0.048, S 0.006, V -0.308, P -0.693, F -0.376, G 0.067, A 0.087
T7: E 0.094, I -0.31, Q 0.019, N -0.007, C -0.56, H -0.168, R -0.056, Y -0.34, S -0.09, W -0.797, L -0.15, F -0.342, G -0.011, A -0.063, M -0.301, K 0.043
L9: N -0.174, C -0.201, W -0.419, A 0.032, H -0.231, T -0.081, I -0.098, M 0.145, Q -0.128, V -0.056, D -0.138, Y -0.181, P -0.197, S -0.042, K 0.026, G -0.047, F 0.007, E -0.11, R -0.156
N10: W -0.676, H -0.608, M 0.042, F -0.103, L -0.204, E -0.022, S -0.08, T 0.062, K 0.2, R -0.274, V -0.211, Q -0.005, D -0.245, A 0.041
P16: M -0.09, C -0.045, T -0.37, S -0.057, N -0.229, A -0.37, E -0.187, Y -0.056, V -0.483, W -0.541, Q -0.094, K -0.248, F 0.024, L -0.095, H 0.009, G -0.354, R -0.179, I -0.173
F19: I 0.178, A -0.114, M 0.181, V -0.211, N 0.04, Y 0.032, L -0.151, T -0.044, P -0.385, W -0.083, H -0.022, C -0.347, S -0.277, R -0.263, K -0.737, E -0.153
K14: H 0.056, C -0.643, P -0.116, E -0.226, M -0.128, W -0.525, D 0.003, A -0.079, L -0.644, N -0.016, V 0.039, Q -0.092, S -0.126, I -0.653, G 0.021, R 0.042, Y -0.554, F -0.36, T 0.013
D15: N 0.02, F 0.003, I 0.01, R -0.257, L 0.015, A -0.138, K -0.014, Y 0.124, S -0.051, E -0.248, T -0.013, H -0.239, P -0.273, G -0.124, W -0.328, V 0.001, M -0.053, C -0.152
I11: A -0.153, W -0.333, P 0.11, E 0.172, Y 0.086, V -0.046, C -0.133, Q 0.065, F -0.063, H 0.054, T -0.099, K -0.104, R -0.112, M 0.039, S -0.026, N 0.037, L -0.22
P3: T -0.016, K -0.248, F -0.216, G -0.137, Y -0.142, E -0.32, L -0.282, W -0.984, C 0.148, V -0.294, I -0.073, S -0.078, A -0.245, R -0.175, D 0.095, Q -0.506
N18: H -0.1, M -0.842, G -0.098, Q -0.07, S -0.128, F -0.199, E -0.104, R -0.079, D 0.008, V -0.348, I -0.5, Y -0.094, P -0.047, W -0.346, A -0.199, T -0.089, K -0.032, C -0.219
C5: W -0.96, R -0.906, K -0.63, Y -0.947, D -0.606, F -1.11, M -0.927, L -1.17, E -0.812, G -0.685, Q -0.689, N -0.693, A -0.844, I -1.06, T -0.872, S -0.68, H -0.142, P -1.01
S13: G -0.525, V -0.456, L -0.23, F -0.148, I -0.21, T -0.048, D -0.463, P -0.062, C -0.384, E -0.257, N -0.146, Q 0.135, M 0.012, A -0.37, K 0.209, Y -0.227, H -0.079, R -0.264
E8: M -0.011, D -0.14, G -0.052, R -0.206, Q -0.178, C -0.56, F -0.431, H -0.479, W -0.517, Y -0.679, L -0.252, N -0.488, A -0.244, I -0.153, P -0.09
P17: K 0.127, F -0.245, V -0.428, G -0.097, D -0.122, A -0.176, N -0.189, Y -0.53, Q -0.114, T -0.464, M -0.491, W -0.199, I -0.448, S -0.175, R -0.106, E 0.137, L -0.084
N20: C -0.091, A -0.001, D 0.186

Variants of: B2
Assay: as above
Conditions: Homo sapiens

Abundance fitness, by site and new letter:
C52: S -0.002, Q 0.145, M 0.433, W -0.033, V 0.032, N -0.161, P -0.667, Y -0.019, T 0.288
P53: S -0.455, H 0.616
